Results published in paper PMC7226451, “Half Way to Hypusine—Structural Basis for Substrate Recognition by Human Deoxyhypusine Synthase” (Biomolecules, 2020).

B1: truncated DHS Δ1-52 (domain or fragment, human, UniProt P49366 53-369, looked up)
chain: GFQATNFGRAVQQVNAMIEKKLEPLSQDEDQHADLTQSRRPLTSCTIFLGYTSNLISSGIRETIRYLVQHNMVDVLVTTAGGVEEDLIKCLAPTYLGEFSLRGKELRENGINRIGNLLVPNENYCKFEDWLMPILDQMVMEQNTEGVKWTPSKMIARLGKEINNPESVYYWAQKNHIPVFSPALTDGSLGDMIFFHSYKNPGLVLDIVEDLRLINTQAIFAKCTGMIILGGGVVKHHIANANLMRNGADYAVYINTAQEFDGSDSGARPDEAVSWGKIRVDAQPVKVYADASLVFPLLVAETFAQKMDAFMHEKNED
notes: human deoxyhypusine synthase, Uniprot P49366, residues 53-369 (lacks the N-terminal ball-and-chain motif, residues 1-52); Cloned in pET24d with an N-terminal 6xHis-tag and a TEV site; also called truncation mutant; source: E. coli BL21(DE3), purified (HisTrap, TEV cleavage, reverse HisTrap, SEC); not shown: His6, N-terminal, cleaved
B2: deoxyhypusine synthase (DHS), full-length, wild type (enzyme, human, UniProt P49366 1-369, looked up)
chain: MEGSLEREAPAGALAAVLKHSSTLPPESTQVRGYDFNRGVNYRALLEAFGTTGFQATNFGRAVQQVNAMIEKKLEPLSQDEDQHADLTQSRRPLTSCTIFLGYTSNLISSGIRETIRYLVQHNMVDVLVTTAGGVEEDLIKCLAPTYLGEFSLRGKELRENGINRIGNLLVPNENYCKFEDWLMPILDQMVMEQNTEGVKWTPSKMIARLGKEINNPESVYYWAQKNHIPVFSPALTDGSLGDMIFFHSYKNPGLVLDIVEDLRLINTQAIFAKCTGMIILGGGVVKHHIANANLMRNGADYAVYINTAQEFDGSDSGARPDEAVSWGKIRVDAQPVKVYADASLVFPLLVAETFAQKMDAFMHEKNED
modifications: Cys177 covalently modified to a β-mercaptoethanol (BME) adduct (seen in all crystal structures)
notes: human deoxyhypusine synthase, Uniprot P49366, residues 1-369; gene optimised for E. coli and synthesised; Cloned in pET24d (NcoI/BamHI) with an N-terminal 6xHis-tag and a TEV site; also called DHS wt; full length DHS; source: E. coli BL21(DE3), purified (HisTrap, TEV cleavage, reverse HisTrap, SEC); not shown: His6, N-terminal, cleaved

Target: the molecule itself
Assay: SEC-MALS; pure protein on XBridge BEH200 7.8 x 300 in 50 mM Tris 7.8, 200 mM NaCl, 5 mM β-ME, 1 mL/min; MALS with refractive index

| Protein | stoichiometry N |
| --- | --- |
| B1 | 2 |
| B2 | 4 |
